Measured values from US20050043236A1 (published 2005).
Like-named read-outs stand apart in the source and are kept apart here.

Experiments:
[1] = target: T1, human VEGF165 (human, UniProt P15692-4 27-191); assay: affinity determination for human VEGF-165 (method not named in Example 7); second row for SEQ ID NO: 26
T1 construct: also called hVEGF165

[2] = target: T1, human VEGF165; assay: affinity determination for human VEGF-165 (method not named in Example 7)
[3] = target: T1, human VEGF165; assay: kinetic dissociation from hVEGF165, as described in WO/0075319
[4] = target: T1, human VEGF165
[5] = target: T1, human VEGF165; assay: half-life of dissociation of the trap-hVEGF165 complex, as described in WO/0075319

T1 sequence (P15692 other isoform, or with tags, fused parts or gaps limits assumed): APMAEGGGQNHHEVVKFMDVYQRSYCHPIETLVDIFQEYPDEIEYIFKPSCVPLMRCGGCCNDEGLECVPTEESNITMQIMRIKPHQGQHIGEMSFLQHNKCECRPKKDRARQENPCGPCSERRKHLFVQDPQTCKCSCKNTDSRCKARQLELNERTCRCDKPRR

B1: VEGF mini-trap of SEQ ID NO:26 (receptor)
chain: SDTGRPFVEMYSEIPEIIHMTEGRELVIPCRVTSPNITVTLKKFPLDTLIPDGKRIIWDSRKGFIISNATYKEIGLLTCEATVNGHLYKTNYLTHRQTNTIIDVVLSPSHGIELSVGEKLVLNCTARTELNVGIDFNWEYPSSKHQHKKLVNRDLKTQSGSEMKKFLSTLTIDGVTRSDQGLYTCAASSGLMTKKNSTFVRVHEKDKTHTCPPC
notes: Secreted from CHO K1 cells; Covalent dimer of about 64 kDa
In the case of B1, the Kd [1] is reported as 0.221 pM, the koff [1] is reported as 5.77e-06 s⁻¹ and the kon [1] is reported as 2.61e+07 M⁻¹ s⁻¹. The Kd [2] was 0.328 pM, the koff [2] was 6.56e-06 s⁻¹ and the kon [2] was 2e+07 M⁻¹ s⁻¹.

B2: recombinant monomeric R1R2-myc myc his (receptor)
chain: SDTGRPFVEMYSEIPEIIHMTEGRELVIPCRVTSPNITVTLKKFPLDTLIPDGKRIIWDSRKGFIISNATYKEIGLLTCEATVNGHLYKTNYLTHRQTNTIIDVVLSPSHGIELSVGEKLVLNCTARTELNVGIDFNWEYPSSKHQHKKLVNRDLKTQSGSEMKKFLSTLTIDGVTRSDQGLYTCAASSGLMTKKNSTFVRVHEK
modifications: C-terminal myc-myc-his tag is not in the letters.
notes: Monomer; The construct is named only, not described; also called R1R2-myc myc his monomer; not shown: myc-myc-his tag and any linker to it
In the case of B2, the koff [3] is reported as 0.00674 s⁻¹, the Kd [4] is reported as ~1 nM and the “T1/2” value [5] is reported as 0.028 h.

B3: uncleaved VEGF trap containing a thrombin cleavage site (Fc fusion)
chain: SDTGRPFVEMYSEIPEIIHMTEGRELVIPCRVTSPNITVTLKKFPLDTLIPDGKRIIWDSRKGFIISNATYKEIGLLTCEATVNGHLYKTNYLTHRQTNTIIDVVLSPSHGIELSVGEKLVLNCTARTELNVGIDFNWEYPSSKHQHKKLVNRDLKTQSGSEMKKFLSTLTIDGVTRSDQGLYTCAASSGLMTKKNSTFVRVHEKDKTHTCPPCLVPRGSPAPELLGGPSVFLFPPKPKDTLMISRTPEVTCVVVDVSHEDPEVKFNWYVDGVEVHNAKTKPREEQYNSTYRVVSVLTVLHQDWLNGKEYKCKVSNKALPAPIEKTISKAKGQPREPQVYTLPPSRDELTKNQVSLTCLVKGFYPSDIAVEWESNGQPENNYKTTPPVLDSDGSFFLYSKLTVDKSRWQQGNVFSCSVMHEALHNHYTQKSLSLSPGK
B3 was tested, and the koff [3] was 4.93e-05 s⁻¹ and the “T1/2” value [5] was 3.9 h.

B4: cleaved VEGF mini-trap (receptor)
chain: SDTGRPFVEMYSEIPEIIHMTEGRELVIPCRVTSPNITVTLKKFPLDTLIPDGKRIIWDSRKGFIISNATYKEIGLLTCEATVNGHLYKTNYLTHRQTNTIIDVVLSPSHGIELSVGEKLVLNCTARTELNVGIDFNWEYPSSKHQHKKLVNRDLKTQSGSEMKKFLSTLTIDGVTRSDQGLYTCAASSGLMTKKNSTFVRVHEKDKTHTCPPCLVPRGS
notes: Product of thrombin digestion of the uncleaved VEGF trap; also called thrombin-cleaved dimeric VEGF mini-trap; truncated trap
With B4 the koff [3] was 5.46e-05 s⁻¹ and the “T1/2” value [5] was 3.53 h.
